This note sets out measurements from article PMC5033645 (Nature structural & molecular biology, 2016).

Series [1] is described as follows: pan-SV2 immunoblot of neuron lysates. The conditions noted are these: glycan lost.
For series [2], the target named is BoNT/A1 receptor-binding domain (HCA), wild type (UniProt P0DPI0 872-1296). Description: SPR. For orientation: SPR reads the build-up and loss of mass on a sensor chip optically.

What is called Kd is a measure of binding affinity in units of concentration. The low end stands for higher affinity, the high end for lower affinity. Usually koff stands for a measure of how fast the partners let go of each other. A lower koff goes with a long-lived complex.

B1: SV2B: SV2B-N516A (protein)
parent chain: MDDYRYRDNYEGYAPNDGYYRGNEQNPEEDAQSDVTEGHDEEDEIYEGEYQGIPHPDDVKSKQTKMAPSRADGLRGQADLMAERMEDEEQLAHQYETIIDECGHGRFQWTLFFVLVLALMADGVEVFVVSFALPSAEKDMCLSSSKKGMLGLIVYLGMMAGAFILGGLADKLGRKKVLSMSLAINASFASLSSFVQGYGAFLFCRLISGIGIGGSLPIVFAYFSEFLSREKRGEHLSWLGIFWMTGGIYASAMAWSIIPHYGWGFSMGTNYHFHSWRVFVIVCALPATVSMVALKFMPESPRFLLEMGKHDEAWMILKQVHDTNMRAKGTPEKVFTVSHIKTPKQMDEFIEIQSSTGTWYQRWLVRFMTIFKQVWDNALYCVMGPYRMNTLILAVVWFTMALSYYGLTVWFPDMIRYFQDEEYKSKMKVFFGEHVHGATINFTMENQIHQHGKLVNDKFIKMYFKHVLFEDTFFDKCYFEDVTSTDTYFKNCTIESTTFYNTDLYKHKFIDCRFINSTFLEQKEGCHMDFEEDNDFLIYLVSFLGSLSVLPGNIISALLMDRIGRLKMIGGSMLISAVCCFFLFFGNSESAMIGWQCLFCGTSIAAWNALDVITVELYPTNQRATAFGILNGLCKLGAILGNTIFASFVGITKVVPILLAAASLVGGGLVALRLPETREQVLM
On to B1, for which the expression_or_secretion entry in series [1] (control: WT SV2B) was “decreases”.

B2: SUMO-bSV2C: human SV2C-L4 (V473-T567) with 6xHis/SUMO tag, expressed in E. coli (domain or fragment)
chain: VERDKYANFTINFTMENQIHTGMEYDNGRFIGVKFKSVTFKDSVFKSCTFEDVTSVNTYFKNCTFIDTVFDNTDFEPYKFIDSEFKNCSFFHNKT
Regarding B2, in series [2], the Kd is ~86 nM and the koff was found to be 0.11 s⁻¹.

B3: SV2A: SV2A-N573A (protein)
parent chain: MEEGFRDRAAFIRGAKDIAKEVKKHAAKKVVKGLDRVQDEYSRRSYSRFEEEEDDDDFPAPADGYYRGEGAQDEEEGGASSDATEGHDEDDEIYEGEYQGIPRAESGGKGERMADGAPLAGVRGGLSDGEGPPGGRGEAQRRKDREELAQQYETILRECGHGRFQWTLYFVLGLALMADGVEVFVVGFVLPSAEKDMCLSDSNKGMLGLIVYLGMMVGAFLWGGLADRLGRRQCLLISLSVNSVFAFFSSFVQGYGTFLFCRLLSGVGIGGSIPIVFSYFSEFLAQEKRGEHLSWLCMFWMIGGVYAAAMAWAIIPHYGWSFQMGSAYQFHSWRVFVLVCAFPSVFAIGALTTQPESPRFFLENGKHDEAWMVLKQVHDTNMRAKGHPERVFSVTHIKTIHQEDELIEIQSDTGTWYQRWGVRALSLGGQVWGNFLSCFSPEYRRITLMMMGVWFTMSFSYYGLTVWFPDMIRHLQAVDYAARTKVFPGERVEHVTFNFTLENQIHRGGQYFNDKFIGLRLKSVSFEDSLFEECYFEDVTSSNTFFRNCTFINTVFYNTDLFEYKFVNSRLVNSTFLHNKEGCPLDVTGTGEGAYMVYFVSFLGTLAVLPGNIVSALLMDKIGRLRMLAGSSVLSCVSCFFLSFGNSESAMIALLCLFGGVSIASWNALDVLTVELYPSDKRTTAFGFLNALCKLAAVLGISIFTSFVGITKAAPILFASAALALGSSLALKLPETRGQVLQ
Regarding B3, the expression_or_secretion result in series [1] (control: WT SV2A) was “no change”.

B4: SV2C (full length, in neurons): SV2C-N559A (protein)
parent chain: MEDSYKDRTSLMKGAKDIAKEVKKQTVKKVNQAVDRAQDEYTQRSYSRFQDEDDDDDYYPPGETYSGEANDDEGSSEATEGHDEEDEIYEGEYQGIPSTNQGKDSIVSVGQPKGDEYKDRRELESERRADEEELAQQYELIIQECGHGRFQWALFFVLGMALMADGVEVFVVGFVLPSAETDLCIPNSGSGWLGSIVYLGMMVGAFFWGGLADKVGRKQSLLICMSVNGFFAFLSSFVQGYGFFLLCRLLSGFGIGGAIPTVFSYFAEVLAREKRGEHLSWLCMFWMIGGIYASAMAWAIIPHYGWSFSMGSAYQFHSWRVFVIVCALPCVSSVVALTFMPESPRFLLEVGKHDEAWMILKLIHDTNMRARGQPEKVFTVNKIKTPKQIDELIEIESDTGTWYRRCFVRIRTELYGIWLTFMRCFNYPVRENTIKLTIVWFTLSFGYYGLSVWFPDVIKHLQSDEYALLTRNVQKDKYANFSINFTMENQVHTGMEYDNGRFLGVKFKSVTFKDSVFKSCTFDDVTSVNTYFKNCTFIDTLFENTDFEPYKFIDSEFQNCSFLHNKTGCQITFDDDYSAYWIYFVNFLGTLAVLPGNIVSALLMDRIGRLTMLGGSMVLSGISCFFLWFGTSESMMIGMLCLYNGLTISAWNSLDVVTVELYPTDRRATGFGFLNALCKAAAVLGNLIFGSLVSITKAIPILLASTVLVCGGLVGLRLPDTRTQVLM
With B4, the expression_or_secretion result in series [1] (control: WT SV2C) is recorded as “decreases”.
